In patent publication US12522842B2, “Glutamine synthetase mutant having glufosinate resistance and application thereof and cultivation method therefor” (GEVOTO LLC, priority 2019, dated 2026):
Positions count from the first letter of the chain named. In names and notes the source's numbering stands.

B1: TaGS_WT: wild-type wheat glutamine synthetase, SEQ ID NO. 2, control (protein, listed as Triticum aestivum)
chain: MALLTDLLNLDLTDSTEKIIAEYIWIGGSGMDLRSKARTLPGPVTDPSKLPKWNYDGSSTGQAPGEDSEVILYPQAIFKDPFRKGNNILVMCDCYTPAGVPIPTNKRYNAAKIFSNPDVAKEEPWYGIEQEYTLLQKDINWPLGWPVGGFPGPQGPYYCSIGADKSFGRDIVDSHYKACLFAGVNISGINGEVMPGQWEFQVGPTVGISAGDQVWVARYLLERITEIAGVVVTFDPKPIPGDWNGAGAHTNYSTESMRKDGGFKVIVDAVEKLKLKHKEHIAAYGEGNERRLTGKHETADINTFSWGVANRGASVRVGRETEQNGKGYFEDRRPASNMDPYVVTSMIAETTILWKP
B2: OR: rice GS mutant, H296R versus SEQ ID NO. 1 (SEQ ID NO. 32) (protein)
chain: MASLTDLVNLNLSDTTEKIIAEYIWIGGSGMDLRSKARTLSGPVTDPSKLPKWNYDGSSTGQAPGEDSEVILYPQAIFKDPFRKGNNILVMCDCYTPAGEPIPTNKRHNAAKIFSSPEVASEEPWYGIEQEYTLLQKDINWPLGWPVGGFPGPQGPYYCGIGADKSFGRDIVDSHYKACLYAGINISGINGEVMPGQWEFQVGPSVGISAGDQVWVARYILERITEIAGVVVSFDPKPIPGDWNGAGAHTNYSTKSMRNDGGYEIIKSAIEKLKLRHKEHISAYGEGNERRLTGRRETADINTFSWGVANRGASVRVGRETEQNGKGYFEDRRPASNMDPYIVTSMIAETTIIWKP
modifications: OR
B3: OsGR: rice GS mutant, S59G and H296R in SEQ ID NO. 1 (SEQ ID NO. 22) (protein)
chain: B2 chain with S59G
modifications: OsGR

What was measured:
[1] = tested on: glutamine synthetase-deficient Escherichia coli; assay: Growth of glutamine synthetase-deficient E. coli transformed with GS mutants in M9 medium containing glufosinate; assay type: cell-based; details: for growth of transformed GS-deficient E. coli (normal GS enzymatic activity): medium containing 0 mM glufosinate
Source text: According to the sequences of the nucleic acid molecules provided in Example 4, the nucleic acid sequences encoding rice GS mutants OsA, OsC, OsD, OsE, OsF, OsG, OsH, OsI, OsK, OsP, OST, OsV, and OsY were synthesized using chemical synthesis method. Restriction digestion sites (Pac1 and Sbf1) were introduced at both ends thereof, and after restriction digestion, they were linked under the action of ligase to an expression vector (such as pADV7 vector, whose structure is shown in FIG. 4) that was subjected to the same restriction digestion treatment. Then, glutamine synthetase-deficient Escherichia coli was transformed with the resultant. After verification, positive clones were picked up and inoculated in M9 medium containing different concentrations of glufosinate to grow, and the growth status of defective Escherichia coli was observed.
With wild-type rice GS (its amino acid sequence shown in SEQ ID NO. 1 and its encoding gene shown in SEQ ID NO. 4) as a negative control, the glufosinate resistance for the GS mutant OsA (S59A, wherein the amino acid S at site 59 of the rice GS is mutated into A), OsC (S59C), OsD (S59D), OsE (S59E), OsF (S59F), OsG (S59G), OsH (S59H), OsI (S591), OsK (S59K), OsP (S59P), OsT (S59T), OsV (S59V), OsY (S59Y) was detected.
With reference to the detection method of Experimental Example 1, glufosinate resistance of the rice GS mutant OsGR (S59G and H296R, the amino acid S at site 59 of rice GS is mutated into G and the amino acid H at site 296 is mutated into R), the wheat GS mutant TaGR (S59G and H296R, the amino acid S at site 59 of wheat GS is mutated into G and the amino acid H at site 296 is mutated into R), the soybean GS mutant GmGR (S59G and H296R, the amino acid S at site 59 of soybean GS is mutated into G and the amino acid H at site 296 is mutated into R) provided in Example 2 was verified.
With reference to Experimental example 1, the glufosinate resistance of rice GS mutants OA, OD, OE, OG, OI, OK, OM, OP, OQ, OR, OS, OT, and OV provided in Example 3 was detected according to the following method.
With wild-type rice GS as a negative control, the glufosinate resistance of GS mutants OA (H296A, amino acid H at site 296 of rice GS is mutated into A), OD (H296D), OE (H296E), OG (H296G), OI (H2961), OK (H296K), OM (H296M), OP (H296P), OQ (H296Q), OR (H296R), OS (H296S), OT (H296T), OV (H296V) was detected.

[2] = target: wheat GS (glutamine synthetase); assay: Enzymatic activity of purified wheat GS: kinetic parameters and glufosinate IC50; assay type: biochemical, wheat (Triticum aestivum); details: inhibition of wheat GS by glufosinate; read-out: glufosinate resistance parameter IC50
Source text: (§1) OsC, OsF, OsG, OsH, OsP, and OsY provided in Example 1, OR provided in Example 3, and rice GS mutant OsGR and wheat GS mutant TaGR provided in Example 2 were detected for their enzymatic kinetic parameter, and enzymatic kinetic parameter in the presence of glufosinate, using wild-type rice GS OsGS_WT and wild-type wheat GS TaGS_WT as controls according to the following method.
(§2) The nucleic acid sequences encoding the above mutants were each cloned into a prokaryotic expression vector pET32a, and the clone was verified by sequencing.
(§3) The mutant enzyme protein was purified with 6His by a standard method, and its concentration was determined with a protein concentration assay kit with Bradford method. The protein was stored in a protein storage solution.
(§4) ELIASA (Detielab, HBS-1096A), glufosinate, substrate sodium L-glutamate (CAS: 6106-04-3).
(1) The composition of a reaction solution for determination of enzymatic activity of glutamine synthetase were as follows: 100 mM Tris-HCl (pH 7.5), 10 mM ATP, 20 mM sodium L-glutamate, 30 mM hydroxylamine, 20 mM MgCl2. 100 μl of the reaction solution after mixed thoroughly was preheated at 35° C. for 5 min, and 10 μl of mutant protein solution (protein concentration of 200 μg/ml) was added to start the reaction. […] The absorbance at 540 nm was measured.

[3] = target: rice GS (glutamine synthetase); assay: Enzymatic activity of purified rice GS: kinetic parameters and glufosinate IC50; assay type: biochemical, rice (Oryza sativa); details: inhibition of rice GS by glufosinate
Source text: as §1, §2, §3, §4
(1) The composition of a reaction solution for determination of enzymatic activity of glutamine synthetase were as follows: 100 mM Tris-HCl (pH 7.5), 10 mM ATP, 20 mM sodium L-glutamate, 30 mM hydroxylamine, 20 mM MgCl2. 100 μl of the reaction solution after mixed thoroughly was preheated at 35° C. for 5 min, and 10 μl of mutant protein solution (protein concentration of 200 μg/ml) was added to start the reaction. After reaction at 35° C. for 30 min, 110 μl of color developing solution (55 g/L FeCl3·6H2O, 20 g/L trichloroacetic acid, 2.1% concentrated hydrochloric acid) was added to terminate the reaction. The absorbance at 540 nm was measured.

[4] = tested on: rice (Nipponbare); assay: Glufosinate resistance of transgenic rice after spraying 1x field dose; assay type: in vivo; details: 1x glufosinate, 450 g/ha, day 7 after spraying
Source text: The glufosinate resistance resulting from the OR mutants provided in Example 3 in transgenic rice was detected according to the following method.
The nucleic acid sequence encoding OR was inserted into the pGVP1 vector (see FIG. 11) according to a conventional method to obtain the pGVP1-OR vector.
The pGVP1-OR vector was transformed into competent cells of EHA105 (Agrobacterium tumefaciens), the monoclonal was picked up for colony PCR detection, and positive strains were obtained; then the positive strains were inoculated into 1 mL YEP medium containing 50 μg·mL^−1 kanamycin and 50 μg·mL^−1 rifampicin for propagation, and stored at −80° C. or used in subsequent experiments. […]
Rice plants transformed with OR mutant gene were detected using the PCR method, forward and reverse detection primers were designed according to pGVP1-OR vector sequence and rice reference gene, the PCR amplification products were assayed by 1.5% agarose gel electrophoresis, and those with bands at 452 bp and 629 bp were transgenic plants.
The transplanted transgenic rice seedlings were evenly arranged in the same experimental area (to avoid overlapping leaves). The area of occupied regions of the experimental group and the control group was calculated. […]

Molecule	growth of transformed E. coli (glufosinate resistance) ([1]; media containing 2 mM, 5 mM, 10 mM, and 20 mM glufosinate)	growth of transformed GS-deficient E. coli (normal GS enzymatic activity) [1]	IC50 [2] [µM]	growth of transformed E. coli (glufosinate resistance) ([1]; medium containing 10 mM glufosinate)	growth of transformed E. coli (glufosinate resistance) ([1]; medium containing 20 mM glufosinate)	growth of transformed E. coli (glufosinate resistance) ([1]; medium containing 50 mM glufosinate)	glufosinate resistance parameter IC50 [3]	performance of transgenic rice seedlings after spraying glufosinate [4]	growth of transformed E. coli (glufosinate resistance) ([1]; media containing 10 mM, 20 mM and 300 mM glufosinate)	growth of transformed E. coli (glufosinate resistance) ([1]; medium containing 300 mM glufosinate)
B1	could hardly grow	could normally grow	600	–	–	–	–	–	–	–
B2	–	could normally grow	–	significantly superior to that of the wild type	significantly grew	still significantly grew	much higher than those of the wild-type controls	not significantly affected by glufosinate and continued to grow	–	–
B3	–	could normally grow	–	–	–	–	much higher than those of the wild-type controls	–	grew significantly	grew significantly
